Test results published in US20210032312A1 (Janssen / Centocor, published 2021).
Where a chain is given by its changes, count along the chain named.

B1: P282DR9P1359_E3 (designed binder)
chain: LPAPKNLVVSRVTEDSARLSWTAPDAAFDSFAIAYPELPLGGEAIVLTVPGSERSYDLTGLKPGTEYFVIIYGVKGGVESFPLSAIFTT
notes: FN3 domain
B2: P282DR9P1359_E5 (designed binder)
chain: B1 chain with A34S, L38W, L40V, G41P, V78L, E79Y, F81A
notes: FN3 domain
B3: P282DR9P1359_E6 (designed binder)
chain: B1 chain with A32W, L38W, L40V, G41Q, I70V, Y72Q, V78T, E79P, F81W
notes: FN3 domain
B4: P282DR9P1359_E8 (designed binder)
chain: B1 chain with A32Q, L38W, L40V, G41I, F68W, Y72Q, V78Y, E79T, F81W
notes: FN3 domain
B5: P282DR9P1359_E11 (designed binder)
chain: B1 chain with A32Y, A34S, L38W, L40P, G41V, F68W, V78A, E79I, F81T
notes: FN3 domain
B6: P282DR9P1359_F3 (designed binder)
chain: B1 chain with A32Y, A34T, L38W, L40V, G41Q, F68W, V78T, F81E
notes: FN3 domain
B7: P282DR9P1359_F6 (designed binder)
chain: B1 chain with A32D, L38W, L40T, G41T, I70V, Y72W, V78D, E79H, F81A
notes: FN3 domain
B8: P282DR9P1359_F7 (designed binder)
chain: B1 chain with L38W, L40P, G41Q, I70V, V78S, E79Y, F81A
notes: FN3 domain
B9: P282CR9P1358_F11 (designed binder)
chain: LPAPKNLVVSRVTEDSARLSWTAPDAAFDSFLIAYPEWPIFEGEAIVLTVPGSERSYDLTGLKPGTEYFVVIYGVKGGEQSSPLSAIFTT
notes: FN3 domain
B10: P282DR9P1359_C5 (designed binder)
chain: B9 chain with L32W, A34T, I40D, F41P, E42G, Q80I, S81Y
notes: FN3 domain
B11: P282DR9P1359_A7 (designed binder)
chain: LPAPKNLVVSRVTEDSARLSWTAPDAAFDSFRIGYPELEKLGYGEAIVLTVPGSERSYDLTGLKPGTEYWVIIWGVKGGENSWPLSAIFTT
notes: FN3 domain
B12: P282DR9P1359_B2 (designed binder)
chain: LPAPKNLVVSRVTEDSARLSWTAPDAAFDSFWIAYTEWPIPYEEAGQEGEAIVLTVPGSERSYDLTGLKPGTEYWVSIYGVKGGPNSQPLSAIFTT
notes: FN3 domain

target: T1, human CD8 alpha (CD8A) on primary human CD8+ T cells (human, UniProt P01732 22-235); assay: flow cytometry, human CD8+ T cells, 2 uM FN3
T1 construct: whole, on cells; also called hCD8A
Procedure: (§1) Binding of the 190 ELISA hits to human and cynomologous monkey primary CD8 T cells was assessed by flow cytometry. The FN3 domain molecules were diluted to 2 μM and 0.2 μM in PBS and incubated with human or cynomologous monkey CD8+ T cells in 96-well format. After 1 hour at 4 C, the cells were washed once with PBS and then resuspended with an anti-FN3 domain antibody (PAB25) solution. Following this incubation, the cells were washed twice with PBS and a PE conjugated secondary antibody and a viability dye were added. Finally, cells were washed and resuspended in PBS for flow cytometric analysis using a BD Canto Instrument. Cells were gating on live cells and median fluorescence intensity of the bound Centyrins (PE channel) was calculated using Cytobank software.

T1 sequence (P01732 22-235): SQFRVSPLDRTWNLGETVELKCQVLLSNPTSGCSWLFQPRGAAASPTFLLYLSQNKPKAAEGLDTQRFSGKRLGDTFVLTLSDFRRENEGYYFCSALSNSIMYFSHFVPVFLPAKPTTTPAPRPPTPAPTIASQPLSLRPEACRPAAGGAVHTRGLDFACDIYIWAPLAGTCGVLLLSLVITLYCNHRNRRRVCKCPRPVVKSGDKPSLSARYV

| Binder | Human T-cell Binding 2 uM (MFI) |
| --- | --- |
| B1 | 4310 MFI |
| B2 | 24100 MFI |
| B3 | 20500 MFI |
| B4 | 26100 MFI |
| B5 | 40600 MFI |
| B6 | 6340 MFI |
| B7 | 19900 MFI |
| B8 | 38300 MFI |
| B9 | 6420 MFI |
| B10 | 31000 MFI |
| B11 | 38400 MFI |
| B12 | 22200 MFI |

target: T1, human CD8 alpha (CD8A) on primary human …; assay: flow cytometry, human CD8+ T cells, 0.2 uM FN3
Procedure: as §1

| Binder | Human T-cell Binding 0.2 uM (MFI) |
| --- | --- |
| B1 | 349 MFI |
| B2 | 1950 MFI |
| B3 | 1260 MFI |
| B4 | 2920 MFI |
| B5 | 7580 MFI |
| B6 | 646 MFI |
| B7 | 3780 MFI |
| B8 | 6930 MFI |
| B9 | 749 MFI |
| B10 | 5550 MFI |
| B11 | 8760 MFI |
| B12 | 2730 MFI |

target: T2, In house human CD8A-Fc (human, UniProt P01732 22-182, limits assumed); assay: SPR (ProteOn), captured hCD8A-Fc
T2 construct: Captured on goat anti-human Fc on a ProteOn GLC chip; also called hCD8A-Fc; recombinant human CD8 alpha; not shown: linker with flag (and polyhistidine) tag and Fc of human IgG1
Procedure: Purified anti-CD8A FN3 domains were subjected to off-rate analysis using a Proteon surface plasmon resonance instrument in order to pick clones with the slowest off-rates for further characterization.
The immobilized GAH-Fc IgG densities averaged about 6000 Response Units (Ru) with less than 1% variation among different channels. In house human CD8A-Fc was captured in vertical orientation at 3 different ligand densities, 10, 5, 2.5 μg/ml for 5 minutes at 30 ul/minute flowrate. All FN3 domains were normalized to a 3 μM concentration, and tested for binding in horizontal orientation. All 6 analyte channels were used for FN3 domains to maximize the screening throughput. The dissociation phase was monitored for 15 minutes at a flow rate of 100 μl/min using PBST as running buffer. […] Data analyses were performed using Bio-Rad ProteOn Manager software (version 3.1.0.6). Raw data were double referenced by subtraction of the interspot (empty chip surface, no protein immobilized or captured) signals to correct the non-specific binding of the FN3 domain to the pre-coated GAH-Fc IgG surface, followed by a double correction using empty channel L6 where no hCD8A-Fc was captured. The processed binding data were locally fit to a 1:1 simple Langmuir binding model to extract the koff for each FN3 domain binding to captured hCD8A-Fc.

T2 sequence (P01732 22-182 limits assumed): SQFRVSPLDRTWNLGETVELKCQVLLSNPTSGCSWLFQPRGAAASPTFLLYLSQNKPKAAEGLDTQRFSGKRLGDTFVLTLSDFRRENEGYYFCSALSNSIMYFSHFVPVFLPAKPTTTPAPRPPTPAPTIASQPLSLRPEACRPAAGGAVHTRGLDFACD

| Binder | koff |
| --- | --- |
| B1 | 0.00263 s⁻¹ |
| B2 | 0.00101 s⁻¹ |
| B3 | 0.00171 s⁻¹ |
| B4 | 0.00119 s⁻¹ |
| B5 | 0.000265 s⁻¹ |
| B6 | 0.00106 s⁻¹ |
| B7 | 0.000389 s⁻¹ |
| B8 | 0.000365 s⁻¹ |
| B9 | 0.00135 s⁻¹ |
| B10 | 0.000174 s⁻¹ |
| B11 | 0.000754 s⁻¹ |
| B12 | 0.000638 s⁻¹ |

target: T3, cynomolgus monkey CD8A on primary cynomolgus monkey CD8+ T cells (cynomolgus monkey, UniProt P01732 23-235 (human entry)); assay: flow cytometry, cyno CD8+ T cells, 0.2 uM FN3
T3 construct: also called Cyno CD8alpha
Procedure: as §1

T3 sequence (P01732 other isoform, or with tags, fused parts or gaps limits assumed): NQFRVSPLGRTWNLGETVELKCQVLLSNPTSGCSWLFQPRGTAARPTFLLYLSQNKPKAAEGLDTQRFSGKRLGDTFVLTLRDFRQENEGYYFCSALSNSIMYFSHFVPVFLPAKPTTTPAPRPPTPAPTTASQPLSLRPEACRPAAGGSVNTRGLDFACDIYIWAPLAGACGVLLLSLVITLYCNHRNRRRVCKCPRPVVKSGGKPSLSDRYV

| Binder | Cyno T-cell Binding 0.2 uM (MFI) |
| --- | --- |
| B1 | 1620 MFI |
| B2 | 13600 MFI |
| B3 | 5060 MFI |
| B4 | 16900 MFI |
| B5 | 33100 MFI |
| B6 | 3080 MFI |
| B7 | 10700 MFI |
| B8 | 26300 MFI |
| B9 | 6580 MFI |
| B10 | 14200 MFI |
| B11 | 22800 MFI |
| B12 | 4470 MFI |

target: T3, cynomolgus monkey CD8A on primary …; assay: flow cytometry, cyno CD8+ T cells, 2 uM FN3
Procedure: as §1

| Binder | Cyno T-cell Binding 2 uM (MFI) |
| --- | --- |
| B1 | 52400 MFI |
| B2 | 81200 MFI |
| B3 | 61700 MFI |
| B4 | 81000 MFI |
| B5 | 104000 MFI |
| B6 | 48900 MFI |
| B7 | 73200 MFI |
| B8 | 96500 MFI |
| B9 | 62400 MFI |
| B10 | 95700 MFI |
| B11 | 83900 MFI |
| B12 | 60900 MFI |
